Reference: IntAct's records for PubMed 11980910

B1: Dual specificity mitogen-activated protein kinase kinase 3 (Homo sapiens), P46734 (parent)
chain: MESPASSQPASMPQSKGKSKRKKDLRISCMSKPPAPNPTPPRNLDSRTFITIGDRNFEVEADDLVTISELGRGAYGVVEKVRHAQSGTIMAVKRIRATVNSQEQKRLLMDLDINMRTVDCFYTVTFYGALFREGDVWICMELMDTSLDKFYRKVLDKNMTIPEDILGEIAVSIVRALEHLHSKLSVIHRDVKPSNVLINKEGHVKMCDFGISGYLVDSVAKTMDAGCKPYMAPERINPELNQKGYNVKSDVWSLGITMIEMAILRFPYESWGTPFQQLKQVVEEPSPQLPADRFSPEFVDFTAQCLRKNPAERMSYLELMEHPFFTLHKTKKTDIAAFVKEILGEDS

Variants of: B1
Settings: with dyr1b_human DYRK1B

Row | effect of a mutation on the interaction | Variant
1 | increasing interaction | T222E
2 | increasing interaction | S218E
